Assay results taken from the supplement of paper PMC9732359.
± gives the uncertainty stated by the source.

Test: protein stability index of a GFP-peptide fusion (yeast GPS) (PSI 1-4); higher = more stable; sorted into four equal gates, so the index is relative within each strain
How it was run: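 For each peptide, the protein stability index sums the read frequency in every gate after multiplying it by the gate number. Read frequencies came from plasmids that were PCR-amplified from each gate and Illumina-sequenced, with reads assigned to strains by barcodes. The gates were four equal bins of GFP/Cherry fluorescence ratio applied to mid-log yeast in leucine-free medium carrying a pooled library of tiled 17-residue yeast protein peptides fused downstream of GFP on a Cherry-expressing plasmid.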

Sequence	protein stability index (doa10∆)	protein stability index (pdr5∆)	protein stability index (san1∆)	protein stability index (ubr1∆)
ADLDSLIIRNDSLSGAV [RPT3]	3.12 ± 0.077	3.06 ± 0.058	2.82 ± 0.049	3 ± 0.049
GSFKRVKPQYDEIHIPA [BRR2]	2.73 ± 0.1	3.07 ± 0.14	2.33 ± 0.096	2.46 ± 0.11
FQMNCYAKEDAFSYPRM [RPN2]	2.53 ± 0.12	2.52 ± 0.078	2.48 ± 0.077	2.61 ± 0.047
KKMGVPYAIVKGKARLG [RPL8A]	1.87 ± 0.17	2.09 ± 0.16	2.12 ± 0.17	
YYAHSIPSSKIDDFTTR [SNU114]	2.96 ± 0.07	3.15 ± 0.078	3.08 ± 0.067	3.32 ± 0.077
TQQQPGAPGANARMPGM [SRP54]	3.1 ± 0.12	2.89 ± 0.096	2.89 ± 0.25	2.7 ± 0.084
EVSKDLIAVYYSFGGLL [RPB8]	2.55 ± 0.051	2.7 ± 0.067	2.46 ± 0.079	2.72 ± 0.057
IDNGTGRTGNGNMGITT [MED6]	2.92 ± 0.12	2.98 ± 0.061	3.25 ± 0.067	3.31 ± 0.043
LPLDSQDDEYVKDWLYD [PRP8]	3.44 ± 0.15	3.39 ± 0.088	3.35 ± 0.099	3.1 ± 0.053
QASGITAGAAANALGGL [SSN3]	2.56 ± 0.071	1.91 ± 0.068	2.13 ± 0.093	2.02 ± 0.058
LLEQKKSIINSQRPGAR [ITC1]		2.67 ± 0.2	2.47 ± 0.23	2.62 ± 0.11
LEGKGSLEEIIAEGQKK [RPP2B]	2.5 ± 0.12	2.17 ± 0.072	3.1 ± 0.076	2.72 ± 0.046
GLPTDAYVAIEQVKDDG [RPN8]	2.61 ± 0.076	1.92 ± 0.1	2.59 ± 0.23	2.34 ± 0.08
EINWRHASFLCSFITQD [FAS1]	2.1 ± 0.15	2.42 ± 0.12	2.17 ± 0.21	2.14 ± 0.15
LKVDPDMLTWVDSNLPD [RPC40]	3.02 ± 0.082	3.13 ± 0.062	2.54 ± 0.16	3.26 ± 0.073
QQQTSTFNSKPVRTIVP [SIR4]	2.38 ± 0.032	2.77 ± 0.036	2.6 ± 0.039	2.58 ± 0.028
VLRPFLLRRLKKDVEKE [SNF2]	2.8 ± 0.13	3.16 ± 0.19		3.11 ± 0.12
NPIANHTVTNSPNPTLQ [SNF5]	2.64 ± 0.038	2.83 ± 0.046	2.65 ± 0.038	2.65 ± 0.03
MLQMKGKLLRNYTQNID [SIR2]	2.91 ± 0.076	2.36 ± 0.11	2.78 ± 0.086	2.02 ± 0.058
LNAIVSKNSPAEDDVII [YJR042W/NUP85]	3.44 ± 0.14	3.37 ± 0.17	3.27 ± 0.087	3.22 ± 0.12
MFGAKPAGTSLFGNNAG [YGL172W/NUP49]	3.16 ± 0.076	3.08 ± 0.067	3.01 ± 0.072	3.06 ± 0.053
IILHFANFGEILEDFRV [YMR153W/NUP53]	2.7 ± 0.1	2.65 ± 0.084	2.85 ± 0.062	2.85 ± 0.16
SSYMGKHWTEKSLHEMN [PRP28]	3.23 ± 0.14	3.14 ± 0.23	3.07 ± 0.19	
ERELISNIEQTESLRVE [YIL149C/MLP2]	3.34 ± 0.063	3.47 ± 0.078	3.18 ± 0.041	3.37 ± 0.07
IMFNHARIIRSELLARD [RGR1]	1.58 ± 0.11	2.17 ± 0.14	2.62 ± 0.14	2.55 ± 0.086
ERKEREDFQKRQQKLLE [SWI1]	3.27 ± 0.073	3.32 ± 0.06	3.34 ± 0.049	3.2 ± 0.048

Sequence	protein stability index (doa10∆)	protein stability index (pdr5∆)	protein stability index (san1∆)	protein stability index (ubr1∆)
LSKEVPFSYLIDETMMD [SRB5]	2.03 ± 0.12	2.36 ± 0.066	2.22 ± 0.13	2.55 ± 0.048
SVGVIINKMVGNRYLEK [RPL21A]	3.01 ± 0.14	3.35 ± 0.13	2.43 ± 0.2	3 ± 0.095
QIVDIRNKRAVQLPILK [YJL039C/NUP192]	2.2 ± 0.1	2.04 ± 0.053	1.43 ± 0.056	1.92 ± 0.058
PDMMVDSFTMPNISHSN [SNF2]	3.28 ± 0.11	2.84 ± 0.098	2.72 ± 0.087	3.18 ± 0.093
GTGNNSAVKRLLHVAVS [RPN2]	2.19 ± 0.24	2.51 ± 0.25		1.58 ± 0.15
IKQDIPIVIIFRALGII [RPB2]	1.61 ± 0.05	1.33 ± 0.037	1.48 ± 0.077	1.49 ± 0.039
KRANNIRKFFGLSKEDD [RPS6A]	3.39 ± 0.17	3.22 ± 0.11	2.98 ± 0.15	3.56 ± 0.11
RLWHTLKYYQDLKNTRM [SNF5]	1.77 ± 0.057	2.02 ± 0.048	2.01 ± 0.06	1.7 ± 0.051
ETAQAINGWELTKAQKY [RPL17A]	3.27 ± 0.055	3.35 ± 0.049	3.18 ± 0.034	3.28 ± 0.043
NGLKDQLNEERSRYRRE [YIL149C/MLP2]	2.77 ± 0.19	2.5 ± 0.22		2.86 ± 0.17
AMLAAQDVAAKCKEVGI [RPS14B]	2.36 ± 0.061	2.36 ± 0.065	1.99 ± 0.073	1.96 ± 0.044
ASGCNVTPIIDGIVVKN [ARP7]	1.9 ± 0.064	2.38 ± 0.063	2.25 ± 0.077	2.9 ± 0.055
APAYAWSHNGPFETFDH [CYT1]	2.19 ± 0.098	2.64 ± 0.099	1.75 ± 0.16	2.78 ± 0.1
WDHPVIAGVITRSKRLS [CSN12]	2.86 ± 0.17	2.82 ± 0.11	3.13 ± 0.11	3.02 ± 0.068
QLYESGNPVNDANLLGA [COR1]	2.53 ± 0.059	2.65 ± 0.057	2.42 ± 0.069	2.81 ± 0.044
GPPQSLYGLNLTLRKAK [FAS1]	2.81 ± 0.064	2.15 ± 0.065	3.32 ± 0.06	2.42 ± 0.051
QNDQWSIQMEFMLRKQD [SSN2]	2.53 ± 0.071	2.58 ± 0.088	2.4 ± 0.12	2.81 ± 0.074
SAETLSELIRTTLDAEK [FAS1]	2.78 ± 0.054	2.73 ± 0.046	2.84 ± 0.044	2.63 ± 0.053
SSKNETSKPVFSFGAAT [YLR335W/NUP2]	3.12 ± 0.071	3.08 ± 0.07	2.88 ± 0.063	3.06 ± 0.038
EDPDQEECSGRRWNKLC [YGL100W/SEH1]	2.24 ± 0.07	2.16 ± 0.083	1.88 ± 0.1	2.27 ± 0.057
LESVGIEIEDEKVSSVL [RPP2A]	3.04 ± 0.075	2.67 ± 0.12	2.77 ± 0.12	2.78 ± 0.094
ERQIFLEACIVRIMKAK [CDC53]	1.64 ± 0.051	1.69 ± 0.048	1.48 ± 0.076	1.61 ± 0.037
LLMSCPRLSHLSLTAVP [GRR1]	1.9 ± 0.051	1.57 ± 0.054	1.63 ± 0.12	2.19 ± 0.059
KIRMLTQAAEFLSPYIS [IRR1]	1.84 ± 0.04	2.46 ± 0.047	1.74 ± 0.074	2.23 ± 0.045
SSIHWNNWFSLPGDMLA [SIN4]	2.56 ± 0.061	1.88 ± 0.055	1.71 ± 0.11	1.93 ± 0.041
